Drawing on patent publication US20220177594A1 (ZOETIS SERVICES, published 2022), this text covers Kd, koff and kon for seven molecules.

B1: Mu_09E09_VH (SEQ ID NO: 35)_Y59A (antibody, V domains shown)
VH: DVKLVESGEGLVKPGGSLKLSCAASGFTFSSYAMSWVRQTPEKRLEWVAYISSGGDYIAYADTVKGRFTISRDNARNTLYLQMSSLKSEDTAMYYCTRDPITGTFAYWGQGTLVTVSA
VL: DLQMTQTTSSLSASLGDRVTISCRASQDINNYLNWYQQKPDGTVKLLIYYTSTLHSGVPSRFSGSGSGTDYSLTISNLEQEDIATYFCQQGNTLPWTFGGGTKLEIKR
B2: Mu_09E09_VH (SEQ ID NO: 35)_P100A (antibody, V domains shown)
VH: DVKLVESGEGLVKPGGSLKLSCAASGFTFSSYAMSWVRQTPEKRLEWVAYISSGGDYIYYADTVKGRFTISRDNARNTLYLQMSSLKSEDTAMYYCTRDAITGTFAYWGQGTLVTVSA
VL: DLQMTQTTSSLSASLGDRVTISCRASQDINNYLNWYQQKPDGTVKLLIYYTSTLHSGVPSRFSGSGSGTDYSLTISNLEQEDIATYFCQQGNTLPWTFGGGTKLEIKR
B3: Mu_09E09_VH (SEQ ID NO: 35)_F105A (antibody, V domains shown)
VH: DVKLVESGEGLVKPGGSLKLSCAASGFTFSSYAMSWVRQTPEKRLEWVAYISSGGDYIYYADTVKGRFTISRDNARNTLYLQMSSLKSEDTAMYYCTRDPITGTAAYWGQGTLVTVSA
VL: DLQMTQTTSSLSASLGDRVTISCRASQDINNYLNWYQQKPDGTVKLLIYYTSTLHSGVPSRFSGSGSGTDYSLTISNLEQEDIATYFCQQGNTLPWTFGGGTKLEIKR
B4: Mu_09E09_VH (SEQ ID NO: 35)_I101A (antibody, V domains shown)
VH: DVKLVESGEGLVKPGGSLKLSCAASGFTFSSYAMSWVRQTPEKRLEWVAYISSGGDYIYYADTVKGRFTISRDNARNTLYLQMSSLKSEDTAMYYCTRDPATGTFAYWGQGTLVTVSA
VL: DLQMTQTTSSLSASLGDRVTISCRASQDINNYLNWYQQKPDGTVKLLIYYTSTLHSGVPSRFSGSGSGTDYSLTISNLEQEDIATYFCQQGNTLPWTFGGGTKLEIKR
B5: Mu_09E09_VH (SEQ ID NO: 35)_T102A (antibody, V domains shown)
VH: DVKLVESGEGLVKPGGSLKLSCAASGFTFSSYAMSWVRQTPEKRLEWVAYISSGGDYIYYADTVKGRFTISRDNARNTLYLQMSSLKSEDTAMYYCTRDPIAGTFAYWGQGTLVTVSA
VL: DLQMTQTTSSLSASLGDRVTISCRASQDINNYLNWYQQKPDGTVKLLIYYTSTLHSGVPSRFSGSGSGTDYSLTISNLEQEDIATYFCQQGNTLPWTFGGGTKLEIKR
B6: Mu_09E09_VL (SEQ ID NO: 37)_Y32A (antibody, V domains shown)
VH: DVKLVESGEGLVKPGGSLKLSCAASGFTFSSYAMSWVRQTPEKRLEWVAYISSGGDYIYYADTVKGRFTISRDNARNTLYLQMSSLKSEDTAMYYCTRDPITGTFAYWGQGTLVTVSA
VL: DLQMTQTTSSLSASLGDRVTISCRASQDINNALNWYQQKPDGTVKLLIYYTSTLHSGVPSRFSGSGSGTDYSLTISNLEQEDIATYFCQQGNTLPWTFGGGTKLEIKR
B7: Mu_09E09_VH (SEQ ID NO: 35)_D99A (antibody, V domains shown)
VH: DVKLVESGEGLVKPGGSLKLSCAASGFTFSSYAMSWVRQTPEKRLEWVAYISSGGDYIYYADTVKGRFTISRDNARNTLYLQMSSLKSEDTAMYYCTRAPITGTFAYWGQGTLVTVSA
VL: DLQMTQTTSSLSASLGDRVTISCRASQDINNYLNWYQQKPDGTVKLLIYYTSTLHSGVPSRFSGSGSGTDYSLTISNLEQEDIATYFCQQGNTLPWTFGGGTKLEIKR

The target of this experiment is T1, ANTIBODY EXPRESSION CONTROL.
T1 construct: also called mouse anti-canine antibody (capture reagent of the expression control ELISA)
As to the kind of experiment: SPR Biacore, expression control. The protocol: The affinity with which candidate mAbs bind canine, feline, and human (SEQ ID NO: 122; Human_OSMR) (R&D Systems, Minneapolis, Minn.) OSMR was determined using surface plasmon resonance (SPR) on a Biacore system (Biacore Life Sciences (GE Healthcare), Uppsala, Sweden). To avoid affinity differences associated with differential surface preparation that can occur when immobilizing antibodies to surfaces; OSMR from each species was directly conjugated to individual surfaces. Immobilization was obtained by amine coupling 5 μg/mL OSMR using N-hydroxysuccinimide (NHS)/1-Ethyl-3-(3-dimethylaminopropyl) carbodiimide (EDC) chemistry. Chips were quenched with ethanolamine and the affinity with which all candidate mAbs bound to the immobilized OSMR was evaluated. All curves were fit to a 1:1 model. […] Results for affinity measurements are described herein.
Data from an ELISA represents an equilibrium state where the antibody is allowed to associate and dissociate over a one-hour period resulting in steady-state binding. Using Biacore, the target protein is immobilized to a surface and the antibody is passed over this surface in a mobile liquid phase. Protein-protein interaction is determined from changes in the surface resonance which allows for calculation of association (kₐ), disassociation (kd), and affinity constant (KD). While not wishing to be bound to one hypothesis we present data from ELISA and Biacore experiments, using the same preparation of antibody, that may result in agreement between the two methods with respect to binding but also may show contradictory results due to the nature of the binding kinetics and different assay dynamics. The data presented in Table A (in combination with experimental results from yeast display mutational analysis in Example 21) allow for the definition of a structure:function relationship to be defined between the anti-OSMR antibodies described here and their ability to bind and block IL-31 and OSM-mediated signaling through the OSMR receptor.
Take B1: the Kd came to 0.147 nM, the koff turned out to be 4.52e-05 s⁻¹ and the kon was 307000 M⁻¹ s⁻¹.

For the molecule B2, the Kd was 0.0786 nM, the koff is 2.35e-05 s⁻¹ and the kon was 300000 M⁻¹ s⁻¹.

Turning to B3, the dissociation constant Kd worked out at 0.138 nM, the koff was found to be 4.66e-05 s⁻¹ and the kon turned out to be 338000 M⁻¹ s⁻¹.

As to B4, the dissociation constant Kd stood at 0.172 nM, the koff is 5.4e-05 s⁻¹ and the kon was determined as 314000 M⁻¹ s⁻¹.

Regarding B5, the Kd came out at 0.172 nM, the koff was 5.33e-05 s⁻¹ and the kon turned out to be 311000 M⁻¹ s⁻¹.

Turning to B6, the Kd worked out at 0.294 nM, the koff was 8.76e-05 s⁻¹ and the kon was 298000 M⁻¹ s⁻¹.

For B7, the Kd is 0.219 nM, the dissociation rate constant (koff) was 6.88e-05 s⁻¹ and the kon was determined as 314000 M⁻¹ s⁻¹.
